Substrate in the data set: CC(C)(O)[C@@H]1CC[C@](C)([C@H]2[C@@H](O)C[C@@]3(C)[C@@H]4C[C@H](O[C@@H]5O[C@H](CO)[C@@H](O)[C@H](O)[C@H]5O)[C@H]5C(C)(C)[C@@H](O[C@@H]6OC[C@@H](O)[C@H](O)[C@H]6O)CC[C@@]56C[C@@]46CC[C@]23C)O1
The data set can be described thus: UHPLC kinetic assay of acetylation. It counts as biochemical, Astragalus propinquus. The conditions noted are these: acetyl-CoA as acyl donor.

Changes are numbered by the printed parent chain. Names and notes keep the numbering of the source.

B1: AmAT7-3 (Astragalus propinquus; A310G) (protein)
chain: MSSLRLVSSSTIQAANDNNDDSSQLIDLTVWDLIGLERESIQQGLLYHHPNQVDTPNQIQHLKHSLSSTLSFFPPFAGRLVITEYEDNTATCFIACNNAGALFVHAVAENTTISDILQPNKYVPPIVNSLFSLNGVKNREGTIQPLLVVQVTELVDGIFIGLTVNHVVADGKSFWLFVNSWAEISRGFQKPSKLPTLERWFLNDTDHPIRFSFSMEEEKKKFQSGQLTTRFFHFTRENIAHLKSKANGEVTLGNTERRISSLQALLAHVWRSVVRCERIDPQEVLYYILLIDARTRLIPPLEDDYFGNAGDAGVVIMKAGELLEGGLGNVAWNMNKVISLNSDEKIKNRYKSWLRTPQLPSMGMHTTFASQLLIIANSPRFNVYGNDFGWGKPLAVRSSAENKRDCKIVLFAGAEEGSIDIEVCLPYEILEALGNDAEFLDNHSIG
notes: full length cloned in pET-28a(+), E. coli BL21(DE3), Ni-NTA; for kinetics and crystals pET28a-TEV plus size exclusion
Broadly, the Km is the concentration of substrate that gives half-maximal velocity. Regarding B1, the Michaelis-Menten constant (Km) (paper prints 'toward 1a', read as formation of product 1a (C3'-O-acetylation) from 1) was 76.7 µM.

B2: AmAT7-3 (Astragalus propinquus; A310W) (protein)
chain: B1 chain with G310W
notes: as for B1
Regarding B2, the Michaelis constant (Km) (paper prints 'toward 1b', read as formation of product 1b (C4'-O-acetylation) from 1) turned out to be 168.3 µM.

These data come from publication PMC10519980, “Characterization and structure-based protein engineering of a regiospecific saponin acetyltransferase from Astragalus membranaceus” (Nature Communications, 2023).
